# Test results: patent publication US20110098227
# Test system: NusA-Notch fusion protein (NusA fused to mouse Notch-1 N1703-D1860 with C-terminal Flag and 8His tags), uncleaved
substance,measurement,value
solubilized gamma-secretase from HeLa cells,apparent Km for hydrolysis (Notch cleavage ELISA),about 0.7 µM
same,specific cleavage at the 1743-1744 junction,γ-secretase activity from HeLa cells specifically cleaves the Notch protein at the 1743-1744 junction
